Experimental data from US9289381B2, “Stabilization and storage of biological pharmaceutical compositions” (The University of North Carolina at Charlotte, priority 2009, dated 2016).
Several values for one entry are separate records, joined by “and”; a condition that tells them apart may be missing. Equal entries are not always repeated.

Tests used:
[1] = Microcalorimetry (DSC) of HEWL dispersions stored in 80% w/w CDHP or 0.1M NaOAc; assay type: physicochemical; set-up: Thermal transition midpoint temperature of HEWL: unit not given here
Protocol: The samples were formulated in 2 ml silanized glass vials to reduce protein-surface interactions, covered with cap and septa, wrapped with parafilm to ensure no drying out of the sample, and stored away from sunlight. They were stirred for at least 24 hours until a homogeneous distribution of protein was obtained. […] The 35 silanized vials were exposed to UV light for 24 hours to ensure sterility. Control samples at equivalent concentrations were also prepared in triplicates in 0.1M NaOAc buffer (pH 4). Samples were tested for thermal stability via microcalorimetry and functional activity via the micrococcus lysodeikticus assay at monthly intervals.
A MicroCal VP-DSC microcalorimeter was used to assess thermal structural stability of all samples. Baseline repeatability was established with a minimum of 5 buffer-buffer scans. […] HEWL solutions were tested similarly with no dilution of the samples. Between samples, during the filling period of 15° C. to 25° C., the sample cell of the DSC was flushed with at least 25 ml distilled H2O, then at least 15 ml NaOAc to ensure no sample residue remained behind. Thermal profiles, enthalpy changes, and transition temperatures were obtained with Origin software.
All formulations were diluted to 0.1-0.5 mg/ml for testing. This allows one to observe how well protein thermal stability and structural integrity is maintained following storage and then dilution into a solution of similar composition as the environment of the body.

[2] = Microcalorimetry (DSC) of 1 mg/ml HEWL solutions in 0-40% w/w CDHP or 20% choline chloride in 0.1M NaOAc; assay type: physicochemical
Protocol: All samples were prepared in triplicate. A MicroCal VP-DSC microcalorimeter was used to assess thermal structural stability of all samples. […] HEWL solutions were tested similarly with no dilution of the samples. Between samples, during the filling period of 15° C. to 25° C., the sample cell of the DSC was flushed with at least 25 ml distilled H2O, then at least 15 ml NaOAc to ensure no sample residue remained behind. Thermal profiles, enthalpy changes, and transition temperatures were obtained with Origin software.

[3] = tested on: micrococcus lysodeikticus; test: Micrococcus lysodeikticus turbidimetric assay of HEWL enzyme activity; assay type: biochemical; conditions: formulated in NaOAc compared with 80% w/w CDHP, 10 and 100 mg/ml, 5 months
[4] = Sedimentation analysis of HEWL dispersions (centrifugation, BCA); assay type: physicochemical; conditions: HEWL dispersion in 80% w/w CDHP, 75 minutes at 15000 RPM
Protocol: The presence of any CDHP crystals was also noted. […] Images were taken using SlideBook.
The second approach to verify these sample compositions was to determine the amount of protein in the dispersed phase after separation of the solid and liquid components by centrifugation. To achieve separation of these components, solutions were centrifuged for 75 minutes at 15000 RPM, about 10% remained in the supernatant. Both the decanted supernatant and the pellet, which was re-suspended in buffer, were analyzed for protein content. It was observed that ˜90% of the formulated protein was contained in the pellet. The remaining about 10% of the formulated protein was found in the supernatant. […] Although the supernatants appeared clear it is possible that there are sub-visible particles of lysozyme in the supernatant that resist sedimentation at this rate.

[5] = 350 mg/ml vs 1 mg/ml, aqueous solvent; cited from earlier work
[6] = stored at 100 mg/ml in Choline dhp, 3 months
[7] = stored at 100 mg/ml in Choline dhp, 4 months
[8] = stored at 100 mg/ml in Choline dhp, 5 months
[9] = 20% w/w Choline Chloride in 0.1M NaOAc

## HEWL: hen egg white lysozyme (HEWL), a well characterized protein, purchased from Worthington Biochem
[1]; [6]
  Enthalpy of unfolding of HEWL: 231.1 kJ/mol and 239.63 kJ/mol and 229.7 kJ/mol
  Thermal transition midpoint temperature of HEWL: 346.39 and 346.37
[1]; [7]
  Enthalpy of unfolding of HEWL: 189.24 kJ/mol and 190.709 kJ/mol and 208.01 kJ/mol
  Thermal transition midpoint temperature of HEWL: 346.3 and 346.35 and 346.37
[1]; [8]
  Enthalpy of unfolding of HEWL: 162.76 kJ/mol and 152.3 kJ/mol and 164.43 kJ/mol
  Thermal transition midpoint temperature of HEWL: 346.29 and 346.02 and 346.35
[1]; stored at 100 mg/ml in NaOAc, 0 months
  Thermal transition midpoint temperature of HEWL: 346.92 and 346.45 and 347.06
[1]; stored at 100 mg/ml in NaOAc, 1 month
  Thermal transition midpoint temperature of HEWL: 345.92 and 346.17 and 345.84
[1]; stored at 100 mg/ml in NaOAc, 2 months
  Thermal transition midpoint temperature of HEWL: 345.78 and 346 and 345.69
[1]; stored at 100 mg/ml in NaOAc, 3 months
  Thermal transition midpoint temperature of HEWL: 345.79 and 345.9 and 345.66
[1]; stored at 100 mg/ml in NaOAc, 4 months
  Thermal transition midpoint temperature of HEWL: 345.47 and 345.41 and 345.51
[1]; stored at 100 mg/ml in NaOAc, 5 months
  Thermal transition midpoint temperature of HEWL: 345.39 and 345.41
[2]; 0% w/w CDHP
  Gibbs free energy change at 25 C.: 65.1781 kJ/mol and 60.6525 kJ/mol and 62.88652 kJ/mol
[2]; 0% w/w CDHP in 0.1M NaOAc
  Tm: 75.18 °C and 75.19 °C and 75.25 °C
  ΔH: 435.215 kJ/mol and 451.035 kJ/mol and 419.304 kJ/mol
  ΔS: 298.62 cal/mol K and 309.47 cal/mol K and 287.65 cal/mol K
[2]; 5% w/w CDHP
  Gibbs free energy change at 25 C.: 66.60351 kJ/mol and 64.76891 kJ/mol and 61.6304 kJ/mol
[2]; 5% w/w CDHP in 0.1M NaOAc
  Tm: 76.08 °C and 76.07 °C and 75.4 °C
  ΔH: 420.107 kJ/mol and 454.131 kJ/mol and 447.01 kJ/mol
  ΔS: 287.51 cal/mol K and 310.81 cal/mol K and 306.57 cal/mol K
[2]; 10% w/w CDHP
  Gibbs free energy change at 25 C.: 62.97941 kJ/mol and 70.85361 kJ/mol and 63.99461 kJ/mol
[2]; 10% w/w CDHP in 0.1M NaOAc
  Tm: 76.08 °C and 76.10 °C and 77.09 °C
  ΔH: 436.224 kJ/mol and 429.199 kJ/mol and 475.089 kJ/mol
  ΔS: 298.54 cal/mol K and 293.72 cal/mol K and 324.21 cal/mol K
[2]; 20% w/w CDHP
  Gibbs free energy change at 25 C.: 76.83062 kJ/mol and 72.82361 kJ/mol and 74.28675 kJ/mol
[2]; 20% w/w CDHP in 0.1M NaOAc
  Tm: 78.82 °C and 78.94 °C and 78.79 °C
  ΔH: 484.47 kJ/mol and 500.105 kJ/mol and 475.089 kJ/mol
  ΔS: 328.98 cal/mol K and 339.48 cal/mol K and 322.63 cal/mol K
[2]; 20% w/w Choline Chloride
  Gibbs free energy change at 25 C.: 56.0568 kJ/mol and 52.70719 kJ/mol and 53.24316 kJ/mol
[2]; [9]
  Tm: 72.47 °C and 72.62 °C and 72.36 °C
  ΔH: 386.41 kJ/mol and 405.73 kJ/mol and 383.32 kJ/mol
  ΔS: 267.21 cal/mol K and 280.45 cal/mol K and 265.16 cal/mol K
[2]; 30% tw/w CDHP
  Gibbs free energy change at 25 C.: 86.676 kJ/mol and 71.5355 kJ/mol and 93.75122 kJ/mol
[2]; 30% w/w CDHP in 0.1M NaOAc
  Tm: 81.86 °C and 82.00 °C and 81.80 °C
  ΔH: 583.806 kJ/mol and 538.652 kJ/mol and 445.834 kJ/mol
  ΔS: 393.04 cal/mol K and 362.5 cal/mol K and 300.2 cal/mol K
[2]; 40% w/w CDHP
  Gibbs free energy change at 25 C.: 107.25 kJ/mol and 99.7064 kJ/mol and 100.424 kJ/mol
[2]; 40% w/w CDHP in 0.1M NaOAc
  Tm: 86.27 °C and 86.39 °C and 86.37 °C
  ΔH: 587.81 kJ/mol and 626.558 kJ/mol and 582.48 kJ/mol
  ΔS: 390.9 cal/mol K and 416.5 cal/mol K and 307.2 cal/mol K
[3]
  enzyme activity over time: degrades faster
[4]
  formulated protein contained in the pellet: ~90%
  formulated protein found in the supernatant: about 10%
[5]
  decrease of thermal transition midpoint temperature at the higher concentration: ~5 °C
